The text below walks through data of patent US8367612B2, “Compositions containing, methods involving, and uses of non-natural amino acids and polypeptides” (Ambrx, Inc., priority 2004, dated 2013).

The term Cmax denotes the maximum level reached in the sampled fluid or tissue. Broadly, the MRT is the average time that molecules of a dose stay in the body.

The data set can be described thus: Pharmacokinetic studies, single s.c. dose in rats, plasma concentration by growth hormone ELISA. As to conditions: single-dose 1 mg/kg bolus s.c., normal male Sprague-Dawley rats; average. The class given is in vivo. As to the method:
Pharmacokinetic properties of PEG-modified growth hormone compounds were compared to each other and to nonPEGylated growth hormone in male Sprague-Dawley rats (261-425 g) obtained from Charles River Laboratories. Catheters were surgically installed into the carotid artery for blood collection. Following successful catheter installation, animals were assigned to treatment groups (three to six per group) prior to dosing. Animals were dosed subcutaneously with 1 mg/kg of compound in a dose volume of 0.41-0.55 ml/kg. Blood samples were collected at various time points via the indwelling catheter and into EDTA-coated microfuge tubes. Plasma was collected after centrifugation, and stored at −80° C. until analysis. Compound concentrations were measured using antibody sandwich growth hormone ELISA kits from either BioSource International (Camarillo, Calif.) or Diagnostic Systems Laboratories (Webster, Tex.). Concentrations were calculated using standards corresponding to the analog that was dosed. Pharmacokinetic parameters were estimated using the modeling program WinNonlin (Pharsight, version 4.1). Noncompartmental analysis with linear-up/log-down trapezoidal integration was used, and concentration data was uniformly weighted.
Plasma concentrations were obtained at regular intervals following a single subcutaneous dose in rats. […] Plasma samples were taken over the regular time intervals and assayed for injected compound as described. […] Concentration vs time curves were evaluated by noncompartmental analysis (Pharsight, version 4.1). Values shown are averages (+/− standard deviation). Cmax: maximum concentration; terminal t1/2: terminal half-life; AUC0→inf: area under the concentration-time curve extrapolated to infinity; MRT: mean residence time; Cl/f: apparent total, plasma clearance; Vz/f: apparent volume of distribution during terminal phase.
In general terms: ELISA stands for enzyme-linked immunosorbent assay.
With “30KPEG-pAF35(his)hGH: "hGH polypeptides comprising p-acetyl-phenylalanine covalently-linked to 30 kDa PEG at positions 35 and 92" (position 35, His-tagged)”, the “AUC 0->inf” value is 39,918 ng × hr/ml, the Cl/f was determined as 0.583 mL/min/kg, the Cmax is reported as 1,885 ng/ml and the MRT is 19.16 h. The “Terminal t1/2” value is 4.85 h.
For “30KPEG-pAF131(his)hGH: "His-tagged hGH polypeptide comprising non-natural amino acid p-acetyl-phenylalanine covalently linked to 30 kDa PEG at each of six different positions"”, in that order: 6,978 ng × hr/ml, 2.68 mL/min/kg, 497 ng/mL, 14.28 h and 4.41 h.
For “30KPEG-pAF134(his)hGH: "His-tagged hGH polypeptide comprising non-natural amino acid p-acetyl-phenylalanine covalently linked to 30 kDa PEG at each of six different positions"”, in that order: 7,304 ng × hr/ml, 2.52 mL/min/kg, 566 ng/mL, 12.15 h and 4.36 h.
For “30KPEG-pAF143(his)hGH: "His-tagged hGH polypeptide comprising non-natural amino acid p-acetyl-phenylalanine covalently linked to 30 kDa PEG at each of six different positions"”, in that order: 17,494 ng × hr/ml, 0.983 mL/min/kg, 803 ng/mL, 18.83 h and 6.02 h.
Regarding “30KPEG-pAF145(his)hGH: "His-tagged hGH polypeptide comprising non-natural amino acid p-acetyl-phenylalanine covalently linked to 30 kDa PEG at each of six different positions"”, the “AUC 0->inf” value is given as 13,162 ng × hr/ml, the Cl/f came out at 1.47 mL/min/kg, the Cmax worked out at 634 ng/mL and the mean residence time (MRT) came to 17.82 h. For the same substance, the “Terminal t1/2” value was 5.87 h.
